The values that follow come from the supplement of paper PMC9112550, “Optimization of the antimicrobial peptide Bac7 by deep mutational scanning” (BMC Biology, 2022).

The data set has as its system Escherichia coli TOP10. The data set is described as follows: shrunken log2 fold change of peptide-encoding DNA abundance (4.5 h post-induction vs induction); higher = less antimicrobial activity (less host growth inhibition). Particulars: time post-induction: 4.5 h; library: site-saturation at positions 5, 18, 19, 20.
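Note: peptides expressed intracellularly from a pBAD plasmid library in pooled LB shake-flask culture, induced with 0.3% L-arabinose, DNA abundance read by NGS, three biological replicates, DESeq2 with apeglm shrinkage.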

In the case of RRIRGRPPRLPRPRPRPGWAPRP, the “shrunken log2 fold change” value is 0.992.
To RRIRNRPPRLPRPRPRPYDFPRP belongs 0.0143; to RRIRARPPRLPRPRPRPLTMPRP, 0.637; to RRIRRRPPRLPRPRPRPQTWPRP, 0.345.
In the case of RRIRQRPPRLPRPRPRPNFSPRP it was -0.23; in that of RRIRPRPPRLPRPRPRPDCQPRP, -0.0657.
As to RRIRFRPPRLPRPRPRPGQGPRP, the “shrunken log2 fold change” value was 0.249.
In the case of RRIRYRPPRLPRPRPRPFNLPRP it was -0.271; in that of RRIRSRPPRLPRPRPRPHHMPRP, -1.11.
In the case of RRIRLRPPRLPRPRPRPGTTPRP, the “shrunken log2 fold change” value was -0.221.
Take RRIRVRPPRLPRPRPRPTSTPRP: the “shrunken log2 fold change” value was -0.103.
In the case of RRIRWRPPRLPRPRPRPDCTPRP it was 0.372; in that of RRIRARPPRLPRPRPRPFCVPRP, 0.19; in that of RRIRWRPPRLPRPRPRPYRFPRP, -0.0166.
With RRIRQRPPRLPRPRPRPVYAPRP, the “shrunken log2 fold change” value was 0.16.
In the case of RRIRGRPPRLPRPRPRPNLIPRP it was -0.0614.
In the case of RRIRNRPPRLPRPRPRPDHSPRP it was -0.22.
With RRIRVRPPRLPRPRPRPDIIPRP, the “shrunken log2 fold change” value was -0.35.
As to RRIRVRPPRLPRPRPRPVGHPRP, the “shrunken log2 fold change” value was -0.166.
To RRIRIRPPRLPRPRPRPAKPPRP belongs 0.297.
For the sequence RRIRNRPPRLPRPRPRPHPVPRP, the “shrunken log2 fold change” value is -0.269.
With RRIRARPPRLPRPRPRPLRTPRP, the “shrunken log2 fold change” value was determined as 0.541.
In the case of RRIRKRPPRLPRPRPRPQNCPRP, the “shrunken log2 fold change” value was -0.132.
On to RRIRPRPPRLPRPRPRPTVLPRP, for which the “shrunken log2 fold change” value was -0.225.
Turning to RRIRNRPPRLPRPRPRPPEYPRP, the “shrunken log2 fold change” value was -0.932.
To RRIRDRPPRLPRPRPRPVAAPRP belongs 0.833; to RRIRERPPRLPRPRPRPCINPRP, -0.0818.
In the case of RRIRYRPPRLPRPRPRPGIIPRP it was -0.0361.
For the sequence RRIRNRPPRLPRPRPRPMDGPRP, the “shrunken log2 fold change” value was -0.261.
For the sequence RRIRGRPPRLPRPRPRPSSWPRP, the “shrunken log2 fold change” value stood at 1.05.
Consider RRIRIRPPRLPRPRPRPQFSPRP, for which the “shrunken log2 fold change” value is -0.371.
Turning to RRIRLRPPRLPRPRPRPIWPPRP, the “shrunken log2 fold change” value amounted to 0.356.
RRIRYRPPRLPRPRPRPLFDPRP: the “shrunken log2 fold change” value was 0.802.
Take RRIRGRPPRLPRPRPRPTQRPRP: the “shrunken log2 fold change” value came out at 0.739.
As to RRIRTRPPRLPRPRPRPIQAPRP, the “shrunken log2 fold change” value worked out at 0.232.
To RRIRGRPPRLPRPRPRPQKQPRP belongs 0.154; to RRIRWRPPRLPRPRPRPAMGPRP, 0.161; to RRIRQRPPRLPRPRPRPKHGPRP, 0.00489.
To RRIRVRPPRLPRPRPRPTVSPRP belongs -0.131; to RRIRWRPPRLPRPRPRPSLIPRP, -0.574; to RRIRARPPRLPRPRPRPIKHPRP, -0.0409.
To RRIRVRPPRLPRPRPRPQHHPRP belongs -0.182; to RRIRERPPRLPRPRPRPIRDPRP, 0.0201.
Consider RRIRERPPRLPRPRPRPTHWPRP, for which the “shrunken log2 fold change” value was 1.02.
On to RRIRDRPPRLPRPRPRPLWSPRP, for which the “shrunken log2 fold change” value is -0.0446.
On to RRIRCRPPRLPRPRPRPLADPRP, for which the “shrunken log2 fold change” value was 0.4.
For the sequence RRIRDRPPRLPRPRPRPQVHPRP, the “shrunken log2 fold change” value was -0.0385.
On to RRIRFRPPRLPRPRPRPKQVPRP, for which the “shrunken log2 fold change” value was -0.176.
RRIRDRPPRLPRPRPRPASGPRP: the “shrunken log2 fold change” value stood at 0.15.
In the case of RRIRFRPPRLPRPRPRPPPIPRP it was 1.02.
As for RRIRARPPRLPRPRPRPCSPPRP, the “shrunken log2 fold change” value is -0.0746.
Take RRIRDRPPRLPRPRPRPIYQPRP: the “shrunken log2 fold change” value was -0.431.
To RRIRRRPPRLPRPRPRPTQYPRP belongs 0.571; to RRIRTRPPRLPRPRPRPLNAPRP, -0.264.
As to RRIRARPPRLPRPRPRPWARPRP, the “shrunken log2 fold change” value came to 0.0181.
As for RRIRFRPPRLPRPRPRPMANPRP, the “shrunken log2 fold change” value is -0.104.
In the case of RRIRDRPPRLPRPRPRPRMNPRP it was -0.168; in that of RRIRVRPPRLPRPRPRPGPGPRP, 0.298.
In the case of RRIRARPPRLPRPRPRPEAWPRP, the “shrunken log2 fold change” value was -0.00193.
Turning to RRIRDRPPRLPRPRPRPVAKPRP, the “shrunken log2 fold change” value came out at 0.356.
Turning to RRIRMRPPRLPRPRPRPWCAPRP, the “shrunken log2 fold change” value is 0.204.
Consider RRIRYRPPRLPRPRPRPKLDPRP, for which the “shrunken log2 fold change” value was -0.351.
For RRIRMRPPRLPRPRPRPIFEPRP, the “shrunken log2 fold change” value came out at 0.166.
Turning to RRIRKRPPRLPRPRPRPPVLPRP, the “shrunken log2 fold change” value is -0.0742.
To RRIRKRPPRLPRPRPRPQMYPRP belongs -0.192; to RRIRKRPPRLPRPRPRPGVKPRP, 0.0127; to RRIRGRPPRLPRPRPRPFPHPRP, 0.155.
On to RRIRNRPPRLPRPRPRPSSHPRP, for which the “shrunken log2 fold change” value was -0.0939.
With RRIRRRPPRLPRPRPRPAMLPRP, the “shrunken log2 fold change” value was found to be 1.02.
Consider RRIRYRPPRLPRPRPRPSLMPRP, for which the “shrunken log2 fold change” value is -0.556.
For the sequence RRIRRRPPRLPRPRPRPMWRPRP, the “shrunken log2 fold change” value amounted to 0.312.
As to RRIRGRPPRLPRPRPRPRSRPRP, the “shrunken log2 fold change” value came out at 0.368.
In the case of RRIRNRPPRLPRPRPRPDELPRP it was -0.134.
In the case of RRIRERPPRLPRPRPRPVENPRP, the “shrunken log2 fold change” value is -0.0218.
With RRIRNRPPRLPRPRPRPNSFPRP, the “shrunken log2 fold change” value is -0.00469.
As for RRIRMRPPRLPRPRPRPKWFPRP, the “shrunken log2 fold change” value worked out at 0.275.
As for RRIRHRPPRLPRPRPRPLSWPRP, the “shrunken log2 fold change” value was 0.146.
In the case of RRIRQRPPRLPRPRPRPRCCPRP, the “shrunken log2 fold change” value worked out at 0.061.
With RRIRKRPPRLPRPRPRPMVWPRP, the “shrunken log2 fold change” value stood at 0.722.
For RRIRERPPRLPRPRPRPISSPRP, the “shrunken log2 fold change” value was -0.403.
RRIRKRPPRLPRPRPRPGRYPRP: the “shrunken log2 fold change” value was 0.426.
In the case of RRIRMRPPRLPRPRPRPTKTPRP it was 0.334.
With RRIRTRPPRLPRPRPRPHDPPRP, the “shrunken log2 fold change” value was -0.283.
As for RRIRQRPPRLPRPRPRPPFPPRP, the “shrunken log2 fold change” value stood at 0.243.
To RRIRCRPPRLPRPRPRPTAKPRP belongs 0.226.
Turning to RRIRPRPPRLPRPRPRPPDSPRP, the “shrunken log2 fold change” value was 0.326.
In the case of RRIRNRPPRLPRPRPRPRNTPRP, the “shrunken log2 fold change” value is -0.505.
With RRIRIRPPRLPRPRPRPWRFPRP, the “shrunken log2 fold change” value is -0.105.
With RRIRTRPPRLPRPRPRPNPHPRP, the “shrunken log2 fold change” value was -0.177.
Take RRIRMRPPRLPRPRPRPYDFPRP: the “shrunken log2 fold change” value is -0.00149.
In the case of RRIRHRPPRLPRPRPRPMPPPRP, the “shrunken log2 fold change” value is 0.00237.
